# Measurements as given in US20250215104A1 (WALDEN BIOSCIENCES, published 2025).
# Residue numbers refer to the chain shown, from its start.
# B1: suPAR_DB06_B10 (scFv, V domains shown)
# VH: QVQLVQSGAEVKKPGASVKVSCKASGDTLTNYYMHWVRQAPGQGLEWMGWIDHENGSTIYAQKFQGRVTMTRDTSTSTVYMELSSLRSEDTAVYYCARGYDVDWFVYWGQGTLVTVSS
# VL: DIQMTQSPSSLSASVGDRVTITCSARSSVSYMYWYQQKPGKAPKLLIYRTSNLQTGVPSRFSGSGSGTDFTLTISSLQPEDFATYYCQQYHSYPPTFGGGTKVEIK
# B2: suPAR_DB06_C12 (scFv, V domains shown)
# VH: B1 VH with D27Y, T28S, L29F, N31A, Y32N, M34I, S57N, A61D, R98N
# VL: B1 VL with Q54A, T55S
# B3: suPAR_DB06_E02 (scFv, V domains shown)
# VH: B1 VH with D27Y, T28S, L29F, S57N, A61D
# VL: B1 VL with Q54A, T55S
# B4: suPAR_DB06_E04 (scFv, V domains shown)
# VH: B1 VH with L29F, T30S, N31S, S57N, A61D, V102M
# VL: B1 VL with S24R, T55S
# B5: suPAR_DB06_C07 (scFv, V domains shown)
# VH: B1 VH with D27Y, L29F, H53P, E54N, N55G, S57G, I59Q
# VL: B1 VL with Q54A, T55S
# B6: suPAR_DB06_D08 (scFv, V domains shown)
# VH: B1 VH with D27Y, L29F, H53P, N55G, S57N, I59S, A61D
# VL: B1 VL with Q54A, T55S
# B7: suPAR_DB06_E10 (scFv, V domains shown)
# VH: B1 VH with L29F, T30I, N31S, H53P, S57N, A61D
# VL: B1 VL with Q54A, T55S
# B8: suPAR_DB06_C10 (scFv, V domains shown)
# VH: B1 VH with D27Y, L29F, T30S, N31A, H53P, E54S, S57N, A61D
# VL: B1 VL with Q54A, T55S
# B9: suPAR_DB06_D07 (scFv, V domains shown)
# VH: B1 VH with D27Y, L29F, N55G, S57N
# VL: B1 VL with Q54A, T55S
# B10: suPAR_DB06_E05 (scFv, V domains shown)
# VH: B1 VH with D27Y, L29F, N31S, Y32H, M34I, H35Q, S57N, A61D, Y100T
# VL: B1 VL with Q54A, T55S
# B11: suPAR_DB06_D10 (scFv, V domains shown)
# VH: B1 VH with D27Y, L29F, N31S, H53P, S57N
# VL: B1 VL with Q54A, T55S
# B12: suPAR_DB06_D06 (scFv, V domains shown)
# VH: B1 VH with D27Y, L29F, H53P, S57N
# VL: B1 VL with Q54A, T55S
# B13: suPAR_DB06_D02 (scFv, V domains shown)
# VH: B1 VH with D27Y, L29F, N31S, Y32N, S57N, A61D
# VL: B1 VL with R26S, Q54A, T55S
# B14: suPAR_DB06_E03 (scFv, V domains shown)
# VH: B1 VH with D27F, T28N, L29I, T30K, N31D, M34I, H53P, S57N, I59S, A61D
# VL: B1 VL with Q54A, T55S
# B15: suPAR_DB06_C06 (scFv, V domains shown)
# VH: B1 VH with D27Y, L29F, T30S, N55G, S57N, I59S
# VL: B1 VL with Q54A, T55S
# B16: suPAR_DB06_E11 (scFv, V domains shown)
# VH: B1 VH with D27Y, L29F, N31G, S57N
# VL: B1 VL with R26S, Q54A, T55S
# B17: suPAR_DB06_B12 (scFv, V domains shown)
# VH: B1 VH with D27Y, L29F, H53P, N55G, S57N, A61D
# VL: B1 VL with Q54A, T55S
# B18: suPAR_DB06_C03 (scFv, V domains shown)
# VH: B1 VH with D27Y, L29F, N31S, H53P, E54N, N55S, S57G, I59N
# VL: B1 VL with Q54A, T55S
# B19: suPAR_DB06_D11 (scFv, V domains shown)
# VH: QVQLVQSGAEVKKPGASVKVSCKASGYTFANYYVHWVRQAPGQGLEWVGMIDPGGGTTNYAQKFQGRVTMTRDTSTSTVYMELSSLRSEDTAVYYCARGYDVDWFVYWGQGTLVTVSS
# VL: B1 VL with S24R, S27Q, Q54A, T55S
# B20: suPAR_DB06_D09 (scFv, V domains shown)
# VH: B1 VH with D27G, L29F, N31S
# VL: B1 VL with R26S, Q54A, T55S
# B21: suPAR_DB06_C01 (scFv, V domains shown)
# VH: B1 VH with D27Y, L29F, N31G, H53P, E54S, S57N, A61D
# VL: B1 VL with S27Q, V29I, Q54A, T55S
# B22: suPAR_DB06_E06 (scFv, V domains shown)
# VH: B1 VH with L29S, N31S, A61D
# VL: B1 VL with Q54A, T55S
# B23: suPAR_DB06_E08 (scFv, V domains shown)
# VH: B1 VH with D27Y, T28G, L29F, N31D, E54S, N55G, S57N
# VL: B1 VL with S27Q, Q54A, T55S
# B24: suPAR_DB06_D05 (scFv, V domains shown)
# VH: B1 VH with D27G, L29F, N31G, H53P, E54S, N55G, S57N, A61D
# VL: B1 VL with S27Q, Q54A, T55S
# B25: suPAR_DB06_C09 (scFv, V domains shown)
# VH: B1 VH with D27Y, L29F, N31S, H53P, S57N, A61D
# VL: B1 VL with S24R, Q54A, T55S
# B26: suPAR_DB06_E07 (scFv, V domains shown)
# VH: B19 VH with A30T, V34L, V48M, M50W, G54H, G55S, T57G, R98S
# VL: B1 VL with Q54A, T55S
# B27: suPAR_DB06_C11 (scFv, V domains shown)
# VH: B1 VH with D27Y, L29F, S57N, A61D
# VL: B1 VL with S27Q, Q54A, T55S
# B28: suPAR_DB06_E09 (scFv, V domains shown)
# VH: B1 VH with D27H, L29F, M34V, I59S, A61D
# VL: B1 VL with Q54A, T55S
# B29: suPAR_DB06_D12 (scFv, V domains shown)
# VH: B1 VH with D27G, L29F, T30S, N31S, H53P, S57N
# VL: B1 VL with S27Q, N52S, Q54A, T55S
# B30: suPAR_DB06_B11 (scFv, V domains shown)
# VH: B1 VH with D27Y, L29F, N31S, Y32N, M34I, S57N, A61D, R98E
# VL: B1 VL with S24R, S27Q, Q54A, T55S
# Target: T1, human soluble urokinase plasminogen activator receptor (suPAR) (human, UniProt Q03405 23-303, limits assumed)
# T1 construct: Target antigen of the scFv off-rate screen; also called hsuPAR; human suPAR
# T1 sequence (Q03405 23-303 limits assumed): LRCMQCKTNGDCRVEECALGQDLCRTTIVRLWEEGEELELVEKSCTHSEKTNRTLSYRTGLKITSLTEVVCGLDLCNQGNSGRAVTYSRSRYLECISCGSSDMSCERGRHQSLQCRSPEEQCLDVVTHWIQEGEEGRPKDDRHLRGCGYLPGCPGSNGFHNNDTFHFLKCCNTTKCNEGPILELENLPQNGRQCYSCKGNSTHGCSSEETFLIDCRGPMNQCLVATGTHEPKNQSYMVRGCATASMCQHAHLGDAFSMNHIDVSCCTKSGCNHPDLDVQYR
# Experiment: BLI (Octet) off-rate screen of scFv clones
row,koff,Binder
1,0.00141 s⁻¹,B1
2,0.00484 s⁻¹,B2
3,0.00189 s⁻¹,B3
4,0.00541 s⁻¹,B4
5,0.00495 s⁻¹,B5
6,0.00166 s⁻¹,B6
7,0.00526 s⁻¹,B7
8,0.00599 s⁻¹,B8
9,0.00244 s⁻¹,B9
10,0.00315 s⁻¹,B10
11,0.00425 s⁻¹,B11
12,0.00406 s⁻¹,B12
13,0.00422 s⁻¹,B13
14,0.00201 s⁻¹,B14
15,0.00311 s⁻¹,B15
16,0.00118 s⁻¹,B16
17,0.00203 s⁻¹,B17
18,0.00347 s⁻¹,B18
19,0.0021 s⁻¹,B19
20,0.00149 s⁻¹,B20
21,0.00233 s⁻¹,B21
22,0.00135 s⁻¹,B22
23,0.00335 s⁻¹,B23
24,0.00558 s⁻¹,B24
25,0.00382 s⁻¹,B25
26,0.00497 s⁻¹,B26
27,0.00201 s⁻¹,B27
28,0.00316 s⁻¹,B28
29,0.00515 s⁻¹,B29
30,0.00489 s⁻¹,B30

# Target: T2, cynomolgus soluble urokinase plasminogen activator receptor (suPAR) (cynomolgus, UniProt Q9GK78 23-303, limits assumed)
# T2 construct: Target antigen of the scFv off-rate screen; also called cynomolgus suPAR; cynomolgus uPAR
# T2 sequence (Q9GK78 23-303 limits assumed): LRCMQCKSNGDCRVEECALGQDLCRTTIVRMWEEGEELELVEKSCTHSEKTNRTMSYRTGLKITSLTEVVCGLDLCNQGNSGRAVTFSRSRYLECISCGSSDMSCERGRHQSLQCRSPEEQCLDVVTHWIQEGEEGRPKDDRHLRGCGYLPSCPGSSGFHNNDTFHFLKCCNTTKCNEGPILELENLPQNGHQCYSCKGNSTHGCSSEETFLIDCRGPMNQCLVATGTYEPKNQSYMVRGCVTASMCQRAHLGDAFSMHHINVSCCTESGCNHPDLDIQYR
# Experiment: BLI (Octet) off-rate screen of scFv clones
row,koff,Binder
1,0.000587 s⁻¹,B1
2,7.52e-05 s⁻¹,B2
3,0.000589 s⁻¹,B3
4,0.000388 s⁻¹,B4
5,0.000387 s⁻¹,B5
6,0.000715 s⁻¹,B6
7,0.000271 s⁻¹,B7
8,0.00048 s⁻¹,B8
9,0.000565 s⁻¹,B9
10,0.000905 s⁻¹,B10
11,0.000365 s⁻¹,B11
12,0.000261 s⁻¹,B12
13,0.00023 s⁻¹,B13
14,0.00037 s⁻¹,B14
15,0.00025 s⁻¹,B15
16,0.000723 s⁻¹,B16
17,0.000293 s⁻¹,B17
18,0.000332 s⁻¹,B18
19,0.000439 s⁻¹,B19
20,0.000341 s⁻¹,B20
21,1.49e-05 s⁻¹,B21
22,0.000319 s⁻¹,B22
23,2.02e-05 s⁻¹,B23
24,0.000222 s⁻¹,B24
25,0.000566 s⁻¹,B25
26,0.000388 s⁻¹,B26
27,0.000631 s⁻¹,B27
28,0.000301 s⁻¹,B28
29,0.000189 s⁻¹,B29
30,0.000128 s⁻¹,B30
